The source of these data is the RNAGym collection of RNA variant scans (doi:10.7554/elife.80360).

Sequences and labels used below:
B1: HDV Ribozyme (parent)
chain: GGCCGGCAUGGUCCCAGCCUCCUCGCUGGCGCCGGCUGGGCAACAUUCCGAGGGGACCGUCCCCUCGGUAAUGGCGAAUGGGACCCA

Variants of B1 are the subject of the data set. Nature of the data set: self-cleavage, relative activity (ratio to wild type); higher = more cleavage; co-transcriptional.
Take C30A C85G: the self-cleavage was found to be 0.509.
For A16U C30A the value was 0.201; for A51G C58U, 0.95; for C62A A78U, 0.185.
In the case of A56G A83C, the self-cleavage was found to be 0.0639.
With U23C U79A, the self-cleavage turned out to be 0.554.
G35A C61A: the self-cleavage amounted to 0.635.
For U9A U69A the value was 0.87; for C14U C63U, 0.927; for U12A A51C, 0.237.
Consider U9A C24A, for which the self-cleavage was found to be 0.914.
For G5A C44G the value was 0.0369.
For C49G C85G the value was 0.712; for C24G C86G, 0.112.
For G2C C36A the value was 0.138; for C13U U46A, 0.219.
Take C21G C49A: the self-cleavage came to 0.
For C19A U46C the value was 0.0665.
For C18G C30G the value was 0.222; for U65G G67A, 0.812.
As to C36A G40A, the self-cleavage was determined as 0.234.
For C3G U72C the value was 0.267; for G17A C61G, 0.406; for G2C G81A, 0.0511.
For G52A G73A the value was 0.602.
As for G39A G53A, the self-cleavage was found to be 0.632.
For A8G U9A the value was 0.506.
For G17U G55A the value was 0.554; for A16U A87U, 0.862.
For A42C the value was 0.333; for C21A C24U, 0.0739; for G11U C62A, 0.487.
With A16C G38A, the self-cleavage worked out at 0.0504.
For G39A G74A the value was 0.172.
For C7G U9A the value was 0.237; for C30U G35U, 0.0219.
For U9A C26A the value was 0.76.
As for C26U C64G, the self-cleavage is 1.1.
Turning to C18A G35U, the self-cleavage is 0.0604.
For C44G G82C the value was 0.0504; for A8C G34U, 0.104; for G52U C84A, 0.904.
For C26G U47C the value was 0.95; for C24G C49G, 0.0314.
For U46G G54U the value was 0.443; for G2A C75G, 0.0615; for U9C G28C, 0.0573.
As for G28U U47A, the self-cleavage worked out at 0.111.
For U23A G38A the value was 0.0963; for G17A G73C, 0.0615; for C49A G53C, 0.506.
For U60G C75A the value was 0.229; for C15A A77U, 0.302.
For A71U G81U the value was 0.185; for A8C A43C, 0.185.
On to G68A A70G, for which the self-cleavage came out at 1.07.
For G50A C75U the value was 0.178; for G5U G29C, 0; for G17C C61U, 0.383.
For C19A A71G the value was 0.136.
For C21A G40U the value was 0.134.
Take U12C G59U: the self-cleavage is 0.135.
As to G2A A77C, the self-cleavage came out at 0.0437.
For C30G C64G the value was 0.0396; for G5C G28U, 0; for C58A U69A, 1.07.
For G28A C63G the value was 0.148; for G31A G38C, 0.142; for G29C G50U, 0.
For C61G C85G the value was 0.906; for G28U C58G, 0.0852.
Consider A42C C57G, for which the self-cleavage stood at 0.237.
As to C7A U12A, the self-cleavage worked out at 0.0978.
For the variant C26G A51G, the self-cleavage is 0.997.
For C24A A43G the value was 0.256.
For G6C C30G the value was 0.0615.
As to U20A G28U, the self-cleavage came to 0.0386.
For U12A C64G the value was 0.437; for G1U G81C, 0.326.
For C44A C66G the value was 0.898; for C22A C44G, 0.0489; for C22A C44A, 0.151.
For C30U G82C the value was 0.102; for C3U U79C, 0.342; for G17U C48U, 0.458.
For the variant C14A C49U, the self-cleavage was 0.7.
For G1A C26U the value was 0; for G10U C66G, 0.717.
For G1U C22A the value was 0.441.
For U9G U69C the value was 1.25; for C41U G52A, 1.06.
Take G10A C66U: the self-cleavage turned out to be 0.853.
For C21G G81U the value was 0.18.
On to C22A U65G, for which the self-cleavage stood at 0.302.
For U46G C48A the value was 0.903; for C22U U69C, 0.914.
For C7G A70U the value was 0.475.
For C62G G80U the value was 0.185; for C30U G52A, 0.621; for C4U G10C, 0.63.
In the case of G29C U60G, the self-cleavage was determined as 0.199.
Turning to C3G C48A, the self-cleavage came out at 0.698.
Consider C30A A70G, for which the self-cleavage was 0.332.
For G38A A78G the value was 0.0755; for C32A G38C, 0.0817.
For C19U G35C the value was 0.0831.
For G59U C64U the value was 1.05; for U27G G68U, 0.858; for A8G A45U, 0.692.
On to G10C C19G, for which the self-cleavage amounted to 0.0811.
For G10C C19A the value was 0.0563.
For U27A C66G the value was 0.755; for G17A G50U, 0.815; for G5A G67C, 0.162.
Regarding G25A A70G, the self-cleavage turned out to be 0.0791.
For C66U A83U the value was 0.43; for G68A A71G, 0.904.
For G53A G81A the value was 0.456; for A45U A71C, 0.653; for U23C G53C, 0.927.
For G6C C49A the value was 0.262; for C7G G34A, 0.115; for A8C C14A, 0.375.
For the variant C22G U27C, the self-cleavage was determined as 0.
For A42C A45G the value was 0.465; for C30G G34C, 0.107; for U9A A45U, 0.719.
For U9C G59A the value was 1.05; for C15G G38A, 0; for A16G G34U, 0.324.
As for G29U A70C, the self-cleavage is 0.0791.
For A42U C64A the value was 0.639; for G1C A45G, 0.192; for C14G C36A, 0.192.
As to C49G A78C, the self-cleavage stood at 0.262.
For C21G C41A the value was 0.0573.
For C4U C85G the value was 0.935; for U60C U79C, 0.326.
For A8C G28U the value was 0.0978; for A8G G34C, 0.0573; for U27C G55A, 0.533.
As to C64G A77G, the self-cleavage stood at 0.434.
For G53U A70G the value was 1.08; for G34A C49A, 0.0852; for G67U G76C, 1.1.
For G38A U65A the value was 0.273.
For C19A G38U, the self-cleavage came to 0.0346.
For C15U U23A the value was 0.831; for A42G A83U, 0.185.
For G11U A42C the value was 0.0308; for G11A G73C, 0.0252; for U23A C63A, 0.812.
For G11A C62A, the self-cleavage was 0.352.
Turning to G25C A56C, the self-cleavage came to 0.115.
For A71C G73U the value was 0.141; for U46G C64U, 0.776; for U47G A56C, 1.09.
For C19A C32G the value was 0.116; for C62U C75G, 0.406.
For G11A C85A the value was 0.735; for U27C A70G, 0.739.
As for G39C C66A, the self-cleavage amounted to 0.361.
For A42C C61G the value was 0.269; for C4G U12G, 0.18; for C44G A56G, 0.886.
As for C22U C41G, the self-cleavage was determined as 0.554.
Turning to G35A A83G, the self-cleavage was 0.258.
